Measurements published in the Immune Epitope Database (IEDB).

Key:
HLA-A*02:01 [1] = experiment: IEDB peptide-MHC binding, cellular MHC/competitive/fluorescence; ≥ and ≤ were set here for values at or beyond the usual limits of such assays
HLA-A*02:03 = experiment: as above
HLA-A*02:06 [2] = experiment: as above
HLA-A*68:02 [3] = experiment: as above
HLA-A*02:02 [4] = experiment: IEDB peptide-MHC binding, purified MHC/competitive/radioactivity; ≥ and ≤ were set here for values at or beyond the usual limits of such assays
HLA-A*02:02 [5] = experiment: IEDB peptide-MHC binding, cellular MHC/competitive/fluorescence; ≥ and ≤ were set here for values at or beyond the usual limits of such assays
HLA-A*02:06 [6] = experiment: IEDB peptide-MHC binding, purified MHC/competitive/radioactivity; ≥ and ≤ were set here for values at or beyond the usual limits of such assays
HLA-A*68:02 [7] = experiment: as above
HLA-A*02:01 [8] = experiment: as above
[9] = source organism: Vaccinia virus WR
[10] = source organism: Influenza A virus
[11] = source organism: Mammarenavirus choriomeningitidis
[12] = source organism: Mammarenavirus machupoense

Row | Sequence | IC50 (HLA-A*02:01 [1]; [9]) | IC50 (HLA-A*02:03; [9]) | IC50 (HLA-A*68:02 [3]; [9]) | IC50 (HLA-A*02:02 [5]; [9]) | IC50 (HLA-A*02:06 [6]; [9]) | IC50 (HLA-A*68:02 [7]; [9]) | IC50 (HLA-A*02:01 [8]; [9]) | further results
1 | YLSKEDRIIT | 11.9 µM | 5.57 µM | 21.5 µM |  |  |  |  | IC50 (HLA-A*02:06 [2]; [9]): 48.7 µM; IC50 (HLA-A*02:02 [4]; [9]): 1.3 µM
2 | RQLTSNVDV | 8.98 µM | 9.76 µM | 18.8 µM | 50.8 µM | 0.17 µM |  |  | 
3 | KTNTKHCPKI | 36.5 µM | 10.9 µM | 20 µM | 33.8 µM | 0.234 µM |  |  | 
4 | QAKKPEVRI | 39.7 µM | 6.57 µM | ≥ 70 µM |  |  |  |  | IC50 (HLA-A*02:06 [2]; [9]): 42 µM; IC50 (HLA-A*02:02 [4]; [9]): 0.738 µM
5 | IVPDIKLDA | 42.2 µM | 15.7 µM |  | 6.39 µM | 3.43 µM | 2.89 µM |  | 
6 | GTGILFMEM | 6.37 µM | 7.73 µM | 26.5 µM |  |  |  |  | IC50 (HLA-A*02:06 [2]; [9]): 9.97 µM; IC50 (HLA-A*02:02 [4]; [9]): 2.2 µM
7 | FIDRGSIKI | 6.95 µM | 12.2 µM | 48 µM | 9.72 µM | 4.03 µM |  |  | 
8 | IVDKFGKNHI | 11.2 µM | 5.08 µM | 12.4 µM |  |  |  |  | IC50 (HLA-A*02:06 [2]; [9]): 8.33 µM; IC50 (HLA-A*02:02 [4]; [9]): 2.93 µM
9 | IAGIILLIL |  | 52.9 µM | 8.8 µM |  |  |  | 3.23 µM | IC50 (HLA-A*02:06 [2]; [9]): ≥ 70 µM; IC50 (HLA-A*02:02 [4]; [9]): 4.19 µM
10 | CAVNTPVSM | 49.1 µM | 15.7 µM |  | 6.27 µM | 1.52 µM | 0.502 µM |  | 
11 | GVLPEETNI | 17.3 µM | 20.4 µM | 12 µM | 17.3 µM | 0.573 µM |  |  | 
12 | QTVDFTDCRT | 40.1 µM | 54.3 µM |  | 30.5 µM | 3.65 µM | 0.033 µM |  | 
13 | DIKYDNKLL | 26.5 µM | 49.8 µM | 24.8 µM |  |  |  |  | IC50 (HLA-A*02:06 [2]; [9]): ≥ 70 µM; IC50 (HLA-A*02:02 [4]; [9]): 1.42 µM
14 | IVPDADPPI |  | 10.7 µM |  | 5.08 µM | 0.274 µM | 1.52 µM | 0.743 µM | 
15 | PLPCQLMYAL | 13 µM | 8.71 µM | 31.3 µM |  |  |  |  | IC50 (HLA-A*02:06 [2]; [9]): 9.81 µM; IC50 (HLA-A*02:02 [4]; [9]): 0.163 µM
16 | DIIDLLLPST |  | 6.59 µM |  | 14.5 µM | 0.284 µM | 0.164 µM | 0.949 µM | 
17 | GVLHTKFWI |  | 12.3 µM | 43.9 µM | 16.6 µM | 0.417 µM |  | 2.71 µM | 

Row | Sequence | IC50 (HLA-A*02:01 [1]; [9]) | IC50 (HLA-A*02:03; [9]) | IC50 (HLA-A*68:02 [3]; [9]) | IC50 (HLA-A*02:02 [5]; [9]) | IC50 (HLA-A*02:06 [6]; [9]) | IC50 (HLA-A*68:02 [7]; [9]) | IC50 (HLA-A*02:01 [8]; [9]) | further results
18 | NVLSIAPI |  |  |  |  |  |  |  | IC50 (HLA-A*02:01 [1]; [10]): 8.52 µM; IC50 (HLA-A*02:02 [5]; [10]): 39.7 µM; IC50 (HLA-A*02:03; [10]): 17.4 µM; IC50 (HLA-A*02:06 [6]; [10]): 2.34 µM; IC50 (HLA-A*68:02 [7]; [10]): 1.33 µM
19 | FTDCRTIDAI |  | 12.8 µM |  | 9.44 µM | 0.751 µM | 0.171 µM | 1.84 µM | 
20 | FTHTTAFFNT | 9.94 µM | 10.2 µM |  | 17.2 µM | 0.051 µM | 1.02 µM |  | 
21 | SAGFTATICL | 10.4 µM | 20.1 µM |  | 6.9 µM | 2.41 µM | 3.88 µM |  | 
22 | IVQLPKRGV | 15.3 µM | 8.75 µM |  | 12 µM | 3.12 µM | 4.27 µM |  | 
23 | LISILMIFI |  | 5 µM | 10.5 µM |  |  |  | 1.29 µM | IC50 (HLA-A*02:06 [2]; [9]): 7.03 µM; IC50 (HLA-A*02:02 [4]; [9]): 2.37 µM
24 | VAVNKSNKPL | 45 µM | 5.13 µM | 9.35 µM |  |  |  |  | IC50 (HLA-A*02:06 [2]; [9]): 17.6 µM; IC50 (HLA-A*02:02 [4]; [9]): 2.75 µM
25 | LALWDSNFFT |  | 19.9 µM | ≥ 70 µM | 11 µM | 1.25 µM |  | 0.815 µM | 
26 | TTENAAYQV | 29.6 µM | 51.3 µM |  | ≥ 70 µM | 0.442 µM | 0.187 µM |  | 
27 | FSLGAAVKA |  |  |  |  |  |  |  | IC50 (HLA-A*02:01 [1]; [11]): 11 µM; IC50 (HLA-A*02:02 [5]; [11]): 6.47 µM; IC50 (HLA-A*02:03; [11]): 13.4 µM; IC50 (HLA-A*02:06 [6]; [11]): 0.327 µM; IC50 (HLA-A*68:02 [7]; [11]): 1.78 µM
28 | KADAVVADL |  | 12.4 µM | 23.4 µM | 5.14 µM | 2.21 µM |  | 3.96 µM | 
29 | VVIVENDNV | 34.4 µM | 38 µM |  | 13.2 µM | 4.3 µM | 0.967 µM |  | 
30 | VILPDKIDGL |  | 10.8 µM | ≥ 70 µM | 8.09 µM | 0.24 µM |  | 1.79 µM | 
31 | IMLIIFWFSL |  |  |  |  |  |  |  | IC50 (HLA-A*02:03; source organism: SARS-CoV1): 14.9 µM; IC50 (HLA-A*02:06 [2]; source organism: SARS-CoV1): 16.8 µM; IC50 (HLA-A*68:02 [3]; source organism: SARS-CoV1): ≥ 70 µM; IC50 (HLA-A*02:01 [8]; source organism: SARS-CoV1): 3.83 µM; IC50 (HLA-A*02:02 [4]; source organism: SARS-CoV1): 1.54 µM
32 | LNVSYLCHL |  |  |  |  |  |  |  | IC50 (HLA-A*02:01 [1]; [12]): 6.27 µM; IC50 (HLA-A*02:03; [12]): 7.1 µM; IC50 (HLA-A*02:06 [2]; [12]): 13.7 µM; IC50 (HLA-A*68:02 [3]; [12]): 20.3 µM; IC50 (HLA-A*02:02 [4]; [12]): 0.297 µM
33 | DTMRIYCSL |  | 5.46 µM |  | 5.84 µM | 2.92 µM | 0.0013 µM | 3.4 µM | 
